Test results as given in patent US20050037444A1 (INTERCELL, published 2005).

T1: soluble HLA class II molecule DRA1*0101/DRB1*0401 (human, UniProt P01903 26-216; P01911 30-227, limits assumed)
T1 construct: Recombinant soluble MHC class II heterodimer expressed in SC-2 cells (as in Aichinger et al., 1997); also called soluble DRA1*0101/DRB1*0401 molecules
T1 MHC II alpha: not shown
T1 MHC II beta: not shown


Target: T1, soluble HLA class II molecule …
Experiment: competition assay vs biotinylated UD4, L243 capture ELISA

Binder	binding result
FPYIPDKAVYNAIVKVVVANIGYEGQ (synthetic peptide) [p620-646 of Seq ID 56 (LPXTGV)]	binds
MTLPLMALLALSSIVAFVLPRKRKN (synthetic peptide) [p623-647 of Seq ID 142 (LPXTGVI)]	no binding (tested: 200 µM)
YDYKYFYSYKVVKGVKKYFSFSQS (synthetic peptide) [p275-299 of Seq ID 94 (EMPBP)]	binds
FMVEGQRVRTISTYAINNTRCTIF (synthetic peptide) [p395-418 of Seq ID 142 (LPXTGVI)]	no binding (tested: 200 µM)
AGGIFYNQTNQQLLVLCDGMGGHK (synthetic peptide) [p23-47 of Seq ID 114 (POV2)]	no binding (tested: 200 µM)
ALVFEKSVVIANVGDSRA (synthetic peptide) [p107-124 of Seq ID 114 (POV2)]	no binding (tested: 200 µM)
YKVVKGVKKYFSFSQSNGYKIG (synthetic peptide) [p284-305 of Seq ID 94 (EMPBP)]	binds
IKINHFCVVPQINSFKVIPPYGHNS (synthetic peptide) [p226-251 of Seq ID 94 (EMPBP)]	no binding (tested: 200 µM)
KLLVLTMSTLFATQIMNSNHAKASV (synthetic peptide) [p4-29 of Seq ID 94 (EMPBP)]	binds
NNLRGYLIMPNQTLQIPNG (synthetic peptide) [p117-136 of Seq ID 89 (ORF1hom2)]	no binding (tested: 200 µM)
QSWWGLYALLGMLALFIPKFRKESK (synthetic peptide) [p871-896 of Seq ID 56 (LPXTGV)]	no binding (tested: 200 µM)
MHVPSFQNNTTATHQN (synthetic peptide) [p254-270 of Seq ID 94 (EMPBP)]	binds
GESLNIIASRYGVSVDQLMAANNLRG (synthetic peptide) [p96-121 of Seq ID 89 (ORF1hom2)]	no binding (tested: 200 µM)
PKLRSFYSIRKSTLGVASVIVST (synthetic peptide) [p6-28 of Seq ID 56 (LPXTGV)]	binds
KDYAYIRFSVSNGTKAVKIVSSTHFNN (synthetic peptide) [p218-244 of Seq ID 142 (LPXTGVI)]	binds
TIFRYVEGKSLYE (synthetic peptide) [p416-428 of Seq ID 142 (LPXTGVI)]	no binding (tested: 200 µM)
VIVSTLFLISQHQAQA (synthetic peptide) [p24-40 of Seq ID 56 (LPXTGV)]	no binding (tested: 200 µM)
KEFKSFYSIRKSSLGVASVAISTL (synthetic peptide) [p6-30 of Seq ID 142 (LPXTGVI)]	binds
IKLVSYDTVKDYAYIRFSVSNGTKA (synthetic peptide) [p209-233 of Seq ID 142 (LPXTGVI)]	binds
PSLNIKNVNYQYAVPSYSPT (synthetic peptide) [p306-326 of Seq ID 94 (EMPBP)]	binds
MNYGYGPGVVTSRTISASQA (synthetic peptide) [p240-260 of Seq ID 74 (ORF1hom1)]	binds
